Laboratory results published in patent US20110165679.

Assays:
Test in all cases: cell_activity
[1] = tested on: Lig3-4+ (engineered meganuclease variant); settings: 1 of 353 clones mutated; BMS maize cells
[2] = tested on: Lig3-4++ (engineered meganuclease variant); settings: 56 of 237 clones mutated; BMS maize cells
[3] = tested on: Lig3-4 (engineered I-CreI-type single-chain meganuclease); settings: 3 of 637 clones mutated; BMS maize cells
I-CreI = target: T1, I-CreI (UniProt P05725); settings: BMS maize cells
T1 sequence: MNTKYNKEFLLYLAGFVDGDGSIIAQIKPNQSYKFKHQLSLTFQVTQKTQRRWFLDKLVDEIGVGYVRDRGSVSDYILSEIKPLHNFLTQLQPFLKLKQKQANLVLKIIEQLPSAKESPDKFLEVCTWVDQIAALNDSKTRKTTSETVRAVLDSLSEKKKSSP

[4] = target: T2, I-SceI (maize codon-modified moI-SceI) (UniProt P03882); settings: BMS maize cells
T2 sequence: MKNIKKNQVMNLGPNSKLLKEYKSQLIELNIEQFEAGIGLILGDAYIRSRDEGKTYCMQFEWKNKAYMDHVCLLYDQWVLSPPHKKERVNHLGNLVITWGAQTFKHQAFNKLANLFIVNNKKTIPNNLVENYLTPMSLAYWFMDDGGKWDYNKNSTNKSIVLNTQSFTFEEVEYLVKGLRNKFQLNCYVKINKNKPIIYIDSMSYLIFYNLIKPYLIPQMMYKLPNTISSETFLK

“ATATACCTCACACGTACGCGTA (double strand) [LIG-1 site (near liguleless1)]” was tested, and the activity (% mutation rate) [1] was 0.3, the activity (% mutation rate) [2] was 24 and the activity (% mutation rate) [3] was 0.5.
In the case of Double I-CreI site, the activity (% mutation rate) (I-CreI; 50 of 66 clones mutated) is reported as 76.
Double I-SceI site was tested, and the activity (% mutation rate) ([4]; 57 of 63 clones mutated) was 90.
For I-CreI site, the activity (% mutation rate) (I-CreI; 318 of 904 clones mutated, 0 of 34 without endonuclease) was 35.
For I-SceI site, the activity (% mutation rate) ([4]; 49 of 58 clones mutated, T-DNA replicon assay, 0 of 34 without endonuclease) was 84.
